PMC10897178, “FANCJ DNA helicase is recruited to the replisome by AND-1 to ensure genome stability” (EMBO Reports, 2024)

Key:
[1] = target: T1, Flag-tagged FANCJ N734H (human, UniProt Q9BX63 1-1249, N734H); assay: pull-down; GST-SepB α-helix bundle (0.5 µg) on Glutathione Sepharose 4B beads, purified Flag-FANCJ (0.5 µg) added; 25 mM Tris-HCl pH 7.5, 150 mM NaCl, 0.1% Triton X-100, 4 °C; washes with 300 mM NaCl, 1% Triton X-100; Western blot; conditions: both partners purified
T1 construct: FANCJ (BRIP1), human, full-length; missense variant found in uterine endometrial carcinoma; source: HEK 293T, transiently transfected, purified (anti-Flag M2 agarose)
T1 sequence (looked up): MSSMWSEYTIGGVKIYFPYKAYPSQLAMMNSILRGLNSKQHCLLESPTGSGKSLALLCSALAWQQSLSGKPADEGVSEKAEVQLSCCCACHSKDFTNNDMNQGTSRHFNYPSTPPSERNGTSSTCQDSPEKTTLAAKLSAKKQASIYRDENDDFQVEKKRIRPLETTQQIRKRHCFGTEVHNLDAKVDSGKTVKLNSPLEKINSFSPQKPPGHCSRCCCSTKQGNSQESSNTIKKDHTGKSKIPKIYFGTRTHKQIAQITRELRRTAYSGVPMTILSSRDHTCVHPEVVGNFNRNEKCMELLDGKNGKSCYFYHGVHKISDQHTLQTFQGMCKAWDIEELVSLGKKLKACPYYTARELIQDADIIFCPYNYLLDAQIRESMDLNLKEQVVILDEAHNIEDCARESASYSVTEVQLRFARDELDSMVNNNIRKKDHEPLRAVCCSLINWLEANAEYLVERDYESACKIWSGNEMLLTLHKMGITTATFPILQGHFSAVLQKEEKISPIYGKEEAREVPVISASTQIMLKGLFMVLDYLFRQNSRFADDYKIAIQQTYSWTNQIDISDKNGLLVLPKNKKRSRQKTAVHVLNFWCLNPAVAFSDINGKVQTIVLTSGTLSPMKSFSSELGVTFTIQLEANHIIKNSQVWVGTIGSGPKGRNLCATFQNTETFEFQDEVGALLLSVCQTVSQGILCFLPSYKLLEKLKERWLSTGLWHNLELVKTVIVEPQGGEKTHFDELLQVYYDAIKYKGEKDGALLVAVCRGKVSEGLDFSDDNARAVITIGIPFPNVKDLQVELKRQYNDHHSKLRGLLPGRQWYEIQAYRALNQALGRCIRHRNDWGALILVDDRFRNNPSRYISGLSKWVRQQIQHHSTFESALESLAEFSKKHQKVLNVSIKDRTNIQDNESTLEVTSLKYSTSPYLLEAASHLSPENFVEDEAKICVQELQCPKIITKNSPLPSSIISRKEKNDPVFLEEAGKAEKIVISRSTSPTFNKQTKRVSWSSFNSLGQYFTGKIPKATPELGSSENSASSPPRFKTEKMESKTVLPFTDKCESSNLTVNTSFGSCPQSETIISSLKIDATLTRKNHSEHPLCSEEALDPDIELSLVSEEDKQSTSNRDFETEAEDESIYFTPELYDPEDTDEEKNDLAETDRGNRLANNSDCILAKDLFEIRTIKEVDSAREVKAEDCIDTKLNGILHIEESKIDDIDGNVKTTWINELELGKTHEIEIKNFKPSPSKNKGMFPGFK

[2] = target: T2, Flag-tagged FANCJ wild type (human, UniProt Q9BX63 1-1249); assay: as above; conditions: both partners purified
T2 construct: FANCJ (BRIP1, BACH1) DNA helicase, human, open reading frame; purified as full-length protein; Plasmid from Hisao Masai (Uno et al, 2012); also called FANCJ WT; Flag-FANCJ WT; source: HEK 293T, transiently transfected (pCSII-EF-MCS): in whole-cell extract or nuclear fraction; also purified (anti-Flag M2 agarose, 3x Flag-peptide elution)
T2 sequence (looked up): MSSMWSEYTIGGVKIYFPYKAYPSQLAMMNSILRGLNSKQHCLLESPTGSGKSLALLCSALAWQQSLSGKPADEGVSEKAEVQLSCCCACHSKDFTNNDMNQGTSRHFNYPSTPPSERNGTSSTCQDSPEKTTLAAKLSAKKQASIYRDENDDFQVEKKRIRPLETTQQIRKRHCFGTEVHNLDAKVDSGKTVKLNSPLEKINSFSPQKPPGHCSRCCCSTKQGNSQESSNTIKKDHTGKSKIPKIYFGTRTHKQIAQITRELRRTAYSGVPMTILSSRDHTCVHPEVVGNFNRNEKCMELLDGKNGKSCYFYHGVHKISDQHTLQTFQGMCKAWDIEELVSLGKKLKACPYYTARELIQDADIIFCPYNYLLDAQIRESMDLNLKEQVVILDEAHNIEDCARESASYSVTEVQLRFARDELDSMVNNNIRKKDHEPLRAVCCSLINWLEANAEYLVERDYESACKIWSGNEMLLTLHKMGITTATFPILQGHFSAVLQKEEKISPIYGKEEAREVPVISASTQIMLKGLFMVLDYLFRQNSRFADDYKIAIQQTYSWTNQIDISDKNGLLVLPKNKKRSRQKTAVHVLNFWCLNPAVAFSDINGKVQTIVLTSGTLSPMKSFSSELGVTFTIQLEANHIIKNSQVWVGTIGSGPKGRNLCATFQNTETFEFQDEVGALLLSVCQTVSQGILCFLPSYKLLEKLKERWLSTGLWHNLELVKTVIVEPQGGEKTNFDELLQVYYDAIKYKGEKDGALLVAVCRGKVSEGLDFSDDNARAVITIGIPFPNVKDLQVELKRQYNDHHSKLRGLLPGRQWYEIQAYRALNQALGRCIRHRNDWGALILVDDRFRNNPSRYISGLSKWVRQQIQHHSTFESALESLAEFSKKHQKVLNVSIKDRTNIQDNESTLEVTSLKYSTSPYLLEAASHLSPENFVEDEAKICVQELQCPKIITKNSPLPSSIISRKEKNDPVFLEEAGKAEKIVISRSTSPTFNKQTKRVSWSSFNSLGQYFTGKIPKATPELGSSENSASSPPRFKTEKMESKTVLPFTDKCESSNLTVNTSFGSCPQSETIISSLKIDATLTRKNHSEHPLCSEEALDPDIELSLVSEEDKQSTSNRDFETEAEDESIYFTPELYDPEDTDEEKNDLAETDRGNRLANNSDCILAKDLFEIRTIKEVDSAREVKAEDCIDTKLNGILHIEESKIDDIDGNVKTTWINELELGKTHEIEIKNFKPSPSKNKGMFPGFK

binding result [1]: binds
binding result [2]: binds
B1: GST-SepB α-helix bundle WT (domain or fragment, human, UniProt O75717 718-824, looked up)
chain: IATEKGQMEEQFWRSVIFHNHLDYLAKNGYEYEESTKNQATKEQQELLMKMLALSCKLEREFRCVELADLMTQNAVNLAIKYASRSRKLILAQKLSELAVEKAAELT
notes: AND-1 (WDHD1), human, α-helix bundle of the SepB domain, amino-acid residues 718-824; Cloned into pGEX-2T; also called GST-SepB α-helix bundle chimeric protein; source: E. coli Rosetta pLysS (DE3), purified (Glutathione Sepharose 4B)
